The source of these data is US20170044257A1 (BRIGHAM AND WOMEN S HOSPITAL, published 2017).

The test deals with T1, human alpha-fetoprotein (hAFP) (human, UniProt P02771 19-609).
T1 construct: No signal peptide cleavage site is stated; also called human AFP
T1 sequence: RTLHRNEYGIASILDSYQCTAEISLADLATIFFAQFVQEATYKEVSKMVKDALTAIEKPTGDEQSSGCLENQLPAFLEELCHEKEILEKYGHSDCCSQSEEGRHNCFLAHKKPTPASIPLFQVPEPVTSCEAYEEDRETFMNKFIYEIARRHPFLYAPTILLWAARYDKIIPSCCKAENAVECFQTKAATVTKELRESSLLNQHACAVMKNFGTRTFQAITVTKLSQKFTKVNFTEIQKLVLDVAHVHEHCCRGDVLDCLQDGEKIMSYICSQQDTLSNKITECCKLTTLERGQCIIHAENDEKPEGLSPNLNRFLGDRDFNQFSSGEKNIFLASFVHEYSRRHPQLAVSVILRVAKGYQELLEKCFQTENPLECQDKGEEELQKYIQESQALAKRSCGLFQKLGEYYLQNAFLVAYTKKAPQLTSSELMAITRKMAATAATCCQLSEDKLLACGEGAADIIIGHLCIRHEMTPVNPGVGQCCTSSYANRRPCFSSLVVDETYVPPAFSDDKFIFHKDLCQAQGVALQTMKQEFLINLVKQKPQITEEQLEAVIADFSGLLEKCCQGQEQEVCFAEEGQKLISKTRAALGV
As to the kind of experiment: SPR (Biacore 3000), mFcRn/mβ2m on chip, hAFP injected, neutral pH. As to the method:
Surface plasmon resonance was conducted using a Biacore 3000 instrument (GE Healthcare) with CMS sensor chips coupled with recombinant human FcRn & hβ₂m heterodimer protein or mouse FcRn & mβ₂m (1000 RU). The coupling was performed by injecting 25 μg/mL of the protein diluted in 10 mM sodium acetate pH 5.0 using the amine coupling kit (GE Healthcare). Phosphate buffer (67 mM phosphate buffer, 0.15 M NaCl, 0.005% Tween 20) at pH 6.0 or pH 7.4 was used as running buffer. Glycine pH 2.5 was used for regeneration of the flow cells. hAFP (SinoBiological) was injected at 25° C. with a flow rate of 25 μl/min, and data were analyzed using the BIAevaluation 4.1 software where the sensorgrams were zero adjusted and reference cell values subtracted.
Background: SPR reads the build-up and loss of mass on a sensor chip optically.

B1: recombinant mouse FcRn & mβ2m (receptor)
chain: SETRPPLMYHLTAVSNPSTGLPSFWATGWLGPQQYLTYNSLRQEADPCGAWMWENQVSWYWEKETTDLKSKEQLFLEALKTLEKILNGTYTLQGLLGCELASDNSSVPTAVFALNGEEFMKFNPRIGNWTGEWPETEIVANLWMKQPDAARKESEFLLNSCPERLLGHLERGRRNLEWKEPPSMRLKARPGNSGSSVLTCAAFSFYPPELKFRFLRNGLASGSGNCSTGPNGDGSFHAWSLLEVKRGDEHHYQCQVEHEGLAQPLTVDLDSSARSS
b2m: IQKTPQIQVYSRHPPENGKPNILNCYVTQFHPPHIEIQMLKNGKKIPKVEMSDMSFSKDWSFYILAHTEFTPTETDTYACRVKHASMAEPKTVYWDRDM
notes: Coupled to the Biacore chip for SPR; also called mFcRn
On to B1, for which the binding result is given as “binds”.
